Data from paper PMC4844972, “A dynamic interaction process between KaiA and KaiC is critical to the cyanobacterial circadian oscillator” (Scientific Reports, 2016).

B1: wild-type KaiC of Synechococcus elongatus PCC 7942 (enzyme)
chain: MTSAEMTSPNNNSEHQAIAKMRTMIEGFDDISHGGLPIGRSTLVSGTSGTGKTLFSIQFLYNGIIEFDEPGVFVTFEETPQDIIKNARSFGWDLAKLVDEGKLFILDASPDPEGQEVVGGFDLSALIERINYAIQKYRARRVSIDSVTSVFQQYDASSVVRRELFRLVARLKQIGATTVMTTERIEEYGPIARYGVEEFVSDNVVILRNVLEGERRRRTLEILKLRGTSHMKGEYPFTITDHGINIFPLGAMRLTQRSSNVRVSSGVVRLDEMCGGGFFKDSIILATGATGTGKTLLVSRFVENACANKERAILFAYEESRAQLLRNAYSWGMDFEEMERQNLLKIVCAYPESAGLEDHLQIIKSEINDFKPARIAIDSLSALARGVSNNAFRQFVIGVTGYAKQEEITGLFTNTSDQFMGAHSITDSHISTITDTIILLQYVEIRGEMSRAINVFKMRGSWHDKAIREFMISDKGPDIKDSFRNFERIISGSPTRITVDEKSELSRIVRGVQEKGPES
notes: KaiC, Synechococcus elongatus PCC 7942; expressed from pGEX-6P-1; The sample is a mixture of phosphorylated and de-phosphorylated KaiC (sites T432 and S431); also called the wild-type KaiC
B2: KaiC-3-1 (enzyme, Synechococcus elongatus PCC 7942)
chain: MTSAEMTSPNNNSEHQAIAKMRTMIEGFDDISHGGLPIGRSTLVSGTSGTGKTLFSIQFLYNGIIEFDEPGVFVTFEETPQDIIKNARSFGWDLAKLVDEGKLFILDASPDPEGQEVVGGFDLSALIERINYAIQKYRARRVSIDSVTSVFQQYDASSVVRRELFRLVARLKQIGATTVMTTERIEEYGPIARYGVEEFVSDNVVILRNVLEGERRRRTLEILKLRGTSHMKGEYPFTITDHGINIFPLGAMRLTQRSSNVRVSSGVVRLDEMCGGGFFKDSIILATGATGTGKTLLVSRFVENACANKERAILFAYEESRAQLLRNAYSWGMDFEEMERQNLLKIVCAYPESAGLEDHLQIIKSEINDFKPARIAIDSLSALARGVSNNAFRQFVIGVTGYAKQEEITGLFTNTSDQFMGAHSITDSHISTITDTIILLQYVEIRGEMSRAINVFKMRGSWHDKAIREFMISDKGPDIKDSFRNFERIISGVPHRITVDEKSELSRIVRGVQEKGPES
notes: KaiC, Synechococcus elongatus PCC 7942, with the mutations of Cluster III; The oligomer state is said to be the same as that of the wild type; also called KaiC mutant of Cluster III
B3: KaiC-2-1 (enzyme, Synechococcus elongatus PCC 7942)
chain: MTSAEMTSPNNNSEHQAIAKMRTMIEGFDDISHGGLPIGRSTLVSGTSGTGKTLFSIQFLYNGIIEFDEPGVFVTFEETPQDIIKNARSFGWDLAKLVDEGKLFILDASPDPEGQEVVGGFDLSALIERINYAIQKYRARRVSIDSVTSVFQQYDASSVVRRELFRLVARLKQIGATTVMTTERIEEYGPIARYGVEEFVSDNVVILRNVLEGERRRRTLEILKLRGTSHMKGEYPFTITDHGINIFPLGAMRLTQRSSNVRVSSGVVRLDEMCGGGFFKDSIILATGATGTGKTLLVSRFVENACANKERAILFAYEESRAQLLRNAYSWGMDFEEMERQNLLKIVCAYPESAGLEDHLQIIKSEINDFKPARIAIDSLSALARGVSNNAFRQFVIGVTGYAKQEEITGLFTNTSDQFMGAHSITDSHISTITDTIILLQYVEIRGEMSRAINVFKMRGSWHDKAIREFMISDKGPDIKDSFRNFERIISGSPTRVTTDEKTELSRIVRGVQEKGPES
notes: KaiC, Synechococcus elongatus PCC 7942, with the mutations of Cluster II; The oligomer state is said to be the same as that of the wild type; also called KaiC mutant of Cluster II
B4: KaiC-1-1 (enzyme, Synechococcus elongatus PCC 7942)
chain: MTSAEMTSPNNNSEHQAIAKMRTMIEGFDDISHGGLPIGRSTLVSGTSGTGKTLFSIQFLYNGIIEFDEPGVFVTFEETPQDIIKNARSFGWDLAKLVDEGKLFILDASPDPEGQEVVGGFDLSALIERINYAIQKYRARRVSIDSVTSVFQQYDASSVVRRELFRLVARLKQIGATTVMTTERIEEYGPIARYGVEEFVSDNVVILRNVLEGERRRRTLEILKLRGTSHMKGEYPFTITDHGINIFPLGAMRLTQRSSNVRVSSGVVRLDEMCGGGFFKDSIILATGATGTGKTLLVSRFVENACANKERAILFAYEESRAQLLRNAYSWGMDFEEMERQNLLKIVCAYPESAGLEDHLQIIKSEINDFKPARIAIDSLSALARGVSNNAFRQFVIGVTGYAKQEEITGLFTNTSDQFMGAHSITDSHISTITDTIILLQYVEIRGEMSRAINVFKMRGSWHDKAIREFMISDKGPDIKDSFRNFERIISGSPTRITVDERSELSRIVRGVQEKGPES
notes: KaiC, Synechococcus elongatus PCC 7942, with the mutation of Cluster I; The oligomer state is said to be the same as that of the wild type; also called KaiC mutant of Cluster I
B5: wild-type KaiA of Synechococcus elongatus PCC 7942 (natural protein)
chain: MLSQIAICIWVESTAILQDCQRALSADRYQLQVCESGEMLLEYAQTHRDQIDCLILVAANPSFRAVVQQLCFEGVVVPAIVVGDRDSEDPDEPAKEQLYHSAELHLGIHQLEQLPYQVDAALAEFLRLAPVETMADHIMLMGANHDPELSSQQRDLAQRLQERLGYLGVYYKRDPDRFLRNLPAYESQKLHQAMQTSYREIVLSYFSPNSNLNQSIDNFVNMAFFADVPVTKVVEIHMELMDEFAKKLRVEGRSEDILLDYRLTLIDVIAHLCEMYRRSIPRET
notes: KaiA, Synechococcus elongatus PCC 7942; expressed from pGEX-6P-1; Plasmid provided by Dr. Carl Johnson; also called the wild-type KaiA
B6: KaiA-2-1 (natural protein, Synechococcus elongatus PCC 7942)
chain: MLSQIAICIWVESTAILQDCQRALSADRYQLQVCESGEMLLEYAQTHRDQIDCLILVAANPSFRAVVQQLCFEGVVVPAIVVGDRDSEDPDEPAKEQLYHSAELHLGIHQLEQLPYQVDAALAEFLRLAPVETMADHIMLMGANHDPELSSQQRDLAQRLQERLGYLGVYYKRDPDRFLRNLPAYESQKLHQAMQTSYREIVLSYFSPNSNLNQSIDNFVNMAFFADVPVTKVVEIHMELMDEFAKKLRVEGRSEDILQDYRLTLIDVIAHLCEMYRRSIPRET
notes: KaiA, Synechococcus elongatus PCC 7942, with the mutation of Cluster II; The oligomer state is said to be the same as that of the wild type; also called KaiA mutant of Cluster II
B7: KaiA-3-1 (natural protein, Synechococcus elongatus PCC 7942)
chain: MLSQIAICIWVESTAILQDCQRALSADRYQLQVCESGEMLLEYAQTHRDQIDCLILVAANPSFRAVVQQLCFEGVVVPAIVVGDRDSEDPDEPAKEQLYHSAELHLGIHQLEQLPYQVDAALAEFLRLAPVETMADHIMLMGANHDPELSSQQRDLAQRLQERLGYLGVYYKRDPDRFLRNLPAYESQKLHQAMQTSYREIVLSYFSPNSNLNQSIDNFVNMAFFADVPVTKVVEIHMELMDEFAKKLRVEGHKEDFLLDYRLTLIDVIAHLCEMYRRSIPRET
notes: KaiA, Synechococcus elongatus PCC 7942, with the mutations of Cluster III; The oligomer state is said to be the same as that of the wild type; also called KaiA mutant of Cluster III
B8: KaiA-1-1 (natural protein, Synechococcus elongatus PCC 7942)
chain: MLSQIAICIWVESTAILQDCQRALSADRYQLQVCESGEMLLEYAQTHRDQIDCLILVAANPSFRAVVQQLCFEGVVVPAIVVGDRDSEDPDEPAKEQLYHSAELHLGIHQLEQLPYQVDAALAEFLRLAPVETMADHIMLMGANHDPELSSQQRDLAQRLQERLGYLGVYYKRDPDRFLRNLPAYESQKLHQAMQTSYREIVLSYFSPNSNLNQSIDNFVNMAFFADVPVTKVVEIHMNLMDEFWKKLRVEGRSEDILLDYRLTLIDVIAHLCEMYRRSIPRET
notes: KaiA, Synechococcus elongatus PCC 7942, with the mutations of Cluster I; R249 belongs to the cluster but was not mutated; The oligomer state is said to be the same as that of the wild type; also called KaiA mutant of Cluster I

Biological target: the molecule itself
Experiment: native gel or EMSA; 8% native gel of the purified proteins, to analyse their oligomerization statuses
Conditions: not given

Question: Does B1 bind?
Answer: Result: binds

Question: Does B2 bind?
Answer: Result: binds

Question: Does B3 bind?
Answer: Result: binds

Question: Does B4 bind?
Answer: Result: binds

Question: Does B5 bind?
Answer: Result: binds

Question: Does B6 bind?
Answer: Result: binds

Question: Does B7 bind?
Answer: Result: binds

Question: Does B8 bind?
Answer: Result: binds

biological target: KaiC (Synechococcus elongatus) (UniProt Q79PF4); experiment: not given; conditions: cited from earlier work

Question: With KaiA (from UniProt Q79PF6) as the molecule, how does the Kd read?
Answer: The Kd was 2500 nM.
